Results reported in patent US20030229005A1 (BIOZYME, published 2003).
Primed or numbered codes have the meaning given here. The star is where a group is joined. Dabcyl′ = CN(C)c1ccc(/N=N/c2ccc(C(=O)*)cc2)cc1; Dnp = O=[N+]([O-])c1ccc(*)c([N+](=O)[O-])c1; fluorescein = fluorescein label

Assays:
Experiment in all cases: cell-based or functional assay
collagenase 1 [1] = target: T1, collagenase 1 (UniProt P03956 100-469, limits assumed)
T1 sequence (looked up): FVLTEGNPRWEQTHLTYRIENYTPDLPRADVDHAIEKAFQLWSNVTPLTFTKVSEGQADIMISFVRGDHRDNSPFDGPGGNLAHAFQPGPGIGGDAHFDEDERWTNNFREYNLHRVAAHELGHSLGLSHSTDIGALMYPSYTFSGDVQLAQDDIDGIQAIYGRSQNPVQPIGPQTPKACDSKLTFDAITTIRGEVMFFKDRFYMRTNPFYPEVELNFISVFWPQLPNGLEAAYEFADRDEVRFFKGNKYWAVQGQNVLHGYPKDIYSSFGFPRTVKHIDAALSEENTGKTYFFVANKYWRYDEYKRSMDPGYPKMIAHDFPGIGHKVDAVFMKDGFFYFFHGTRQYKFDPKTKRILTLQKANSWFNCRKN

human Gelatinase-A [2] = target: T2, human Gelatinase-A (human, UniProt P08253 110-660, limits assumed)
T2 sequence (looked up): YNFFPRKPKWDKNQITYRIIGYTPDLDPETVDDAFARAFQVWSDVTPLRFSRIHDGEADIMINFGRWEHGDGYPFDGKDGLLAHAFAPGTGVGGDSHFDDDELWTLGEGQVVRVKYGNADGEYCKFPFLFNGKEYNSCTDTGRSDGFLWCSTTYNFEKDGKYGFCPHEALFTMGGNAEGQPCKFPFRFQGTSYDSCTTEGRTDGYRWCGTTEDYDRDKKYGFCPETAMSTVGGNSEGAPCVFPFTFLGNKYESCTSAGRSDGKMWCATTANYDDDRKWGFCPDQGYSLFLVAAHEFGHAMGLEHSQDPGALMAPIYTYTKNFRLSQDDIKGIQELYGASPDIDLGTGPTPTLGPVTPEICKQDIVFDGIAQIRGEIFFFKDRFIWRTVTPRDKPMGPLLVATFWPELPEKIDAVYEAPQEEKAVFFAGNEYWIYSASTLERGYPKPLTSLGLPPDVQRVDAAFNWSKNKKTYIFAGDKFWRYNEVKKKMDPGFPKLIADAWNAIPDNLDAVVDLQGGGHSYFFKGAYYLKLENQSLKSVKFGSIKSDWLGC

gelatinase B [3] = target: T3, gelatinase B (UniProt P14780 107-707, limits assumed)
collagenase 1 [4] = target: T1, collagenase 1; remark: listed apart in the source
stromelysin 1 [5] = target: T4, stromelysin 1 (UniProt P08254 100-477, limits assumed)
human Collagenase-3 = human Collagenase-3 (human, UniProt P45452 104-471, limits assumed)
human Gelatinase-A [6] = target: T2, human Gelatinase-A; remark: listed apart in the source
gelatinase B [7] = target: T3, gelatinase B; remark: listed apart in the source
collagenase 1 [8] = target: T1, collagenase 1; remark: listed apart in the source
stromelysin 1 [9] = target: T4, stromelysin 1; remark: listed apart in the source
human Gelatinase-A [10] = target: T2, human Gelatinase-A; remark: listed apart in the source
gelatinase B [11] = target: T3, gelatinase B; remark: listed apart in the source
collagenase 1 [12] = target: T1, collagenase 1; remark: listed apart in the source
stromelysin 1 [13] = target: T4, stromelysin 1; remark: listed apart in the source

T4 sequence (P08254 100-477 limits assumed): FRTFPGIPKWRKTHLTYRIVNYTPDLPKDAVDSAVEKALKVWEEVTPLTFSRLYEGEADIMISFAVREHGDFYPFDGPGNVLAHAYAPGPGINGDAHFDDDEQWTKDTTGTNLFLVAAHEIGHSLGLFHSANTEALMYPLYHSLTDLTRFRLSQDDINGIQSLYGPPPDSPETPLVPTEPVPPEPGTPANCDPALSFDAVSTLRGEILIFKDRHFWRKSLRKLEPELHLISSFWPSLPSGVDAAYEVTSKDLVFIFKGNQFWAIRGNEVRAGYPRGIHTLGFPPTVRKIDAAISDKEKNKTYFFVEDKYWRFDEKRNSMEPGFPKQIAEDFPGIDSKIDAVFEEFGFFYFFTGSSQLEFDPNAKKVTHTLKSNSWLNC
T3 sequence (P14780 107-707 limits assumed): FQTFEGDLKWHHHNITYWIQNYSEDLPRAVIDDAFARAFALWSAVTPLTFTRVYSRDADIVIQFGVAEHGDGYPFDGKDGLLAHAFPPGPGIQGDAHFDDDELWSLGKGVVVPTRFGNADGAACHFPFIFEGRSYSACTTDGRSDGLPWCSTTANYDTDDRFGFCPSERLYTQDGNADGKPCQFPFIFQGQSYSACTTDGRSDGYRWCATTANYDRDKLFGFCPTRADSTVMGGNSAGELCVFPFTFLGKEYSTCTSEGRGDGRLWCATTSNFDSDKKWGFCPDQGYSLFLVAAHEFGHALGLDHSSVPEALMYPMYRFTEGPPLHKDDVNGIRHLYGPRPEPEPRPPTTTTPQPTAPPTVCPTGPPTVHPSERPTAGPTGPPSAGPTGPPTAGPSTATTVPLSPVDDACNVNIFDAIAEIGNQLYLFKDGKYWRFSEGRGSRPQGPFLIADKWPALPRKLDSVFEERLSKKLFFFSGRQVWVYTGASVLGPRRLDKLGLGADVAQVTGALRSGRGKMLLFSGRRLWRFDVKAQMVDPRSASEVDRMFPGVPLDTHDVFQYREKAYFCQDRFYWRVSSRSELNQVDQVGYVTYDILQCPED

**Q.** How did the “selectivity towards Col-3” value (collagenase 1 [1]) turn out when {Dabcyl′}-GPLGMRGC(fluorescein)-NH2 [Dabcyl-GPLGMRGC(Fluorescein)-NH2] was run?
**A.** 215 fold

**Q.** What about the “Selectivity v Col-3, + Gel” value (human Gelatinase-A [2]) of the same binder?
**A.** 25.8 unitless

**Q.** What about the “Selectivity v Col-3, + Gel” value (gelatinase B [3]) of the same binder?
**A.** 6.3 unitless

**Q.** What about the “Selectivity v Col-3, + Gel” value (collagenase 1 [4]) of the same binder?
**A.** 78.4 unitless

**Q.** And the “Selectivity v Col-3, + Gel” value (stromelysin 1 [5])?
**A.** 769 unitless

**Q.** Which “increase in specificity with type II collagen” value (human Collagenase-3) does the source give for {Dabcyl′}-GPVNLHGC(fluorescein)-NH2 [Dabcyl-GPVNLHGC(Flu)-NH2] here?
**A.** 2.5 fold

**Q.** What about the “Selectivity v Col-3” value (human Gelatinase-A [2]) of the same binder?
**A.** 2.3 unitless

**Q.** And the “Selectivity v Col-3, + Gel” value (human Gelatinase-A [2])?
**A.** 26.5 unitless

**Q.** What about the “Selectivity v Col-3” value (gelatinase B [3]) of the same binder?
**A.** 0.7 unitless

**Q.** What about the “Selectivity v Col-3, + Gel” value (gelatinase B [3]) of the same binder?
**A.** 6 unitless

**Q.** And the “Selectivity v Col-3” value (collagenase 1 [4])?
**A.** 128 unitless

**Q.** What about the “Selectivity v Col-3, + Gel” value (collagenase 1 [4]) of the same binder?
**A.** 92.3 unitless

**Q.** What about the “Selectivity v Col-3” value (stromelysin 1 [5]) of the same binder?
**A.** 71.3 unitless

**Q.** What about the “Selectivity v Col-3, + Gel” value (stromelysin 1 [5]) of the same binder?
**A.** 72.5 unitless

**Q.** And the “Improvement In Selectivity for 44 ug/ml Type II Collagen vs no Type II Collagen” value (human Gelatinase-A [6])?
**A.** 80 fold

**Q.** And the “Selectivity v Col-3, + 1.6 ug/ml TIICol” value (human Gelatinase-A [6])?
**A.** 9.3 unitless

**Q.** And the “Selectivity v Col-3, + 4.9 ug/ml TIICol” value (human Gelatinase-A [6])?
**A.** 26.3 unitless

**Q.** What about the “Selectivity v Col-3, + 15 ug/ml TIICol” value (human Gelatinase-A [6]) of the same binder?
**A.** 75.9 unitless

**Q.** And the “Selectivity v Col-3, + 44 ug/ml TIICol” value (human Gelatinase-A [6])?
**A.** 465 unitless

**Q.** What about the “Selectivity v Col-3, + .18 ug/ml TIICol” value (human Gelatinase-A [6]) of the same binder?
**A.** 7.7 unitless

**Q.** What about the “Selectivity v Col-3, + .55 ug/ml TIICol” value (human Gelatinase-A [6]) of the same binder?
**A.** 9.9 unitless

**Q.** And the “Selectivity v Col-3, no TIICol” value (human Gelatinase-A [6])?
**A.** 5.8 unitless

**Q.** And the “Improvement In Selectivity for 44 ug/ml Type II Collagen vs no Type II Collagen” value (gelatinase B [7])?
**A.** 46 fold

**Q.** What about the “Selectivity v Col-3, + 1.6 ug/ml TIICol” value (gelatinase B [7]) of the same binder?
**A.** 3 unitless

**Q.** And the “Selectivity v Col-3, + 4.9 ug/ml TIICol” value (gelatinase B [7])?
**A.** 5.7 unitless

**Q.** And the “Selectivity v Col-3, + 15 ug/ml TIICol” value (gelatinase B [7])?
**A.** 15.2 unitless

**Q.** What about the “Selectivity v Col-3, + 44 ug/ml TIICol” value (gelatinase B [7]) of the same binder?
**A.** 58.8 unitless

**Q.** What about the “Selectivity v Col-3, + .18 ug/ml TIICol” value (gelatinase B [7]) of the same binder?
**A.** 1.8 unitless

**Q.** And the “Selectivity v Col-3, + .55 ug/ml TIICol” value (gelatinase B [7])?
**A.** 2.2 unitless

**Q.** And the “Selectivity v Col-3, no TIICol” value (gelatinase B [7])?
**A.** 1.3 unitless

**Q.** And the “Improvement In Selectivity for 44 ug/ml Type II Collagen vs no Type II Collagen” value (collagenase 1 [8])?
**A.** 2.5 fold

**Q.** And the “Selectivity v Col-3, + 1.6 ug/ml TIICol” value (collagenase 1 [8])?
**A.** 227 unitless

**Q.** And the “Selectivity v Col-3, + 4.9 ug/ml TIICol” value (collagenase 1 [8])?
**A.** 265 unitless

**Q.** And the “Selectivity v Col-3, + 15 ug/ml TIICol” value (collagenase 1 [8])?
**A.** 355 unitless

**Q.** And the “Selectivity v Col-3, + 44 ug/ml TIICol” value (collagenase 1 [8])?
**A.** 424 unitless

**Q.** And the “Selectivity v Col-3, + .18 ug/ml TIICol” value (collagenase 1 [8])?
**A.** 190 unitless

**Q.** What about the “Selectivity v Col-3, + .55 ug/ml TIICol” value (collagenase 1 [8]) of the same binder?
**A.** 221 unitless

**Q.** And the “Selectivity v Col-3, no TIICol” value (collagenase 1 [8])?
**A.** 166 unitless

**Q.** What about the “Improvement In Selectivity for 44 ug/ml Type II Collagen vs no Type II Collagen” value (stromelysin 1 [9]) of the same binder?
**A.** 2.5 fold

**Q.** And the “Selectivity v Col-3, + 1.6 ug/ml TIICol” value (stromelysin 1 [9])?
**A.** 389 unitless

**Q.** And the “Selectivity v Col-3, + 4.9 ug/ml TIICol” value (stromelysin 1 [9])?
**A.** 335 unitless

**Q.** And the “Selectivity v Col-3, + 15 ug/ml TIICol” value (stromelysin 1 [9])?
**A.** 447 unitless

**Q.** What about the “Selectivity v Col-3, + 44 ug/ml TIICol” value (stromelysin 1 [9]) of the same binder?
**A.** 476 unitless

**Q.** And the “Selectivity v Col-3, + .18 ug/ml TIICol” value (stromelysin 1 [9])?
**A.** 263 unitless

**Q.** And the “Selectivity v Col-3, + .55 ug/ml TIICol” value (stromelysin 1 [9])?
**A.** 281 unitless

**Q.** And the “Selectivity v Col-3, no TIICol” value (stromelysin 1 [9])?
**A.** 192 unitless

**Q.** How did the “Selectivity v Col-3” value (human Gelatinase-A [2]) turn out when {Dabcyl′}-GPHPFRGC(fluorescein)-NH2 [Dabcyl-GPHPFRGC(Flu)-NH2] was run?
**A.** 14.8 unitless

**Q.** And the “Selectivity v Col-3” value (gelatinase B [3])?
**A.** 2.6 unitless

**Q.** And the “Selectivity v Col-3, + Gel” value (gelatinase B [3])?
**A.** 11.6 unitless

**Q.** And the “Selectivity v Col-3” value (collagenase 1 [4])?
**A.** 87.8 unitless

**Q.** What about the “Selectivity v Col-3, + Gel” value (collagenase 1 [4]) of the same binder?
**A.** 168 unitless

**Q.** What about the “Selectivity v Col-3” value (stromelysin 1 [5]) of the same binder?
**A.** 43.9 unitless

**Q.** What about the “Selectivity v Col-3, + Gel” value (stromelysin 1 [5]) of the same binder?
**A.** 53.8 unitless

B1: Dnp-GPSGIHL-NH2 (peptide)
peptide: Dnp-GPSGIHL-NH2
SMILES: CC[C@H](C)[C@H](NC(=O)CNC(=O)[C@H](CO)NC(=O)[C@@H]1CCCN1C(=O)CNc1ccc([N+](=O)[O-])cc1[N+](=O)[O-])C(=O)N[C@@H](Cc1c[nH]cn1)C(=O)N[C@@H](CC(C)C)C(N)=O
**Q.** How did the “Selectivity v. Coll-3” value (human Gelatinase-A [10]) turn out when B1 was run?
**A.** 8 unitless

**Q.** And the “Selectivity v. Coll-3” value (gelatinase B [11])?
**A.** 6 unitless

**Q.** And the “Selectivity v. Coll-3” value (collagenase 1 [12])?
**A.** 3440 unitless

**Q.** What about the “Selectivity v. Coll-3” value (stromelysin 1 [13]) of the same binder?
**A.** 2040 unitless

B2: Dnp-GPVNLHG-NH2 (peptide)
peptide: Dnp-GPVNLHG-NH2
SMILES: CC(C)C[C@H](NC(=O)[C@H](CC(N)=O)NC(=O)[C@@H](NC(=O)[C@@H]1CCCN1C(=O)CNc1ccc([N+](=O)[O-])cc1[N+](=O)[O-])C(C)C)C(=O)N[C@@H](Cc1c[nH]cn1)C(=O)NCC(N)=O
**Q.** Which “Selectivity v. Coll-3” value (human Gelatinase-A [10]) does the source give for B2 here?
**A.** 25 unitless

**Q.** What about the “Selectivity v. Coll-3” value (gelatinase B [11]) of the same binder?
**A.** 11 unitless

**Q.** And the “Selectivity v. Coll-3” value (collagenase 1 [12])?
**A.** 459 unitless

**Q.** What about the “Selectivity v. Coll-3” value (stromelysin 1 [13]) of the same binder?
**A.** 1260 unitless
